In patent publication US20130337478A1:
Numbering of substitutions follows the chain as printed. One block for each binder: values may come before it.

Columns and labels:
[1] = target: polyclonal human IgG; experiment: affinity chromatography; VHH coupled to NHS-Sepharose 4B FF, polyclonal human IgG 0.5 mg/ml in PBS pH 7.4, 150 cm/hr
[2] = target: polyclonal human IgG; experiment: affinity chromatography; VHH on Sepharose resin at about 15 mg/ml ligand density

B1: anti IgG-CH1 VHH #87 (VHH)
VHH: QVQLQESGGGLVQAGASLRLSCEVSGNTLSQYAMGWFRQVPGHKREFVAAIRWTNGNTYYADSVEGRFTISRDSAKKTVYLQMNSLQPDDTAIYYCAARFLPYASSNAYHESLYNYDYWGQGTQVTVSS
DBC (dynamic binding capacity) [1]: 5.64 mg/mL

B2: anti IgG-CH1 VHH #88 (VHH)
VHH: QVQLQESGGGSVQAGGSLRLSCAVSGNTLSRYAMGWFRQAPGNEREFVAAIRWNNGNTYYADSVEGRFTISRYSAKNLVYLQMNSLQAEDTAIYYCAARFLPYASSNAYHEALYNYDYWGQGTQVTVSS
DBC (dynamic binding capacity) [1]: 7.31 mg/mL

B4: anti IgG-CH1 VHH #82 (VHH)
VHH: B2 VHH with S11L, E65K, Y73D, L78T, Y80F, A88P, I93V, Y95F
DBC (dynamic binding capacity) [1]: 6.69 mg/mL

B8: anti IgG-CH1 VHH #83 (VHH)
VHH: B2 VHH with E6D, S11L, Y73D, L78T, A88P, I93V
DBC (dynamic binding capacity) [1]: 8.46 mg/mL

B9: anti IgG-CH1 VHH #10 (VHH)
VHH: QVQLQESGGGLVQAGGSLRLSCAVSGNTLSRYAMGWFRQTPGKEREFVAAIRWNNGATYYADSVEGRFTISRDSGKNTVYLQMNNLQPEDTAVYYCAGRFLGYASSNAYHEALYNYDYWGQGTQVTVSS
DBC (dynamic binding capacity) [1]: 12 mg/mL

B10: anti IgG-CH1 VHH #84 (VHH)
VHH: B2 VHH with E6D, S11L, E65K, Y73D, L78T, A88P, I93V
DBC (dynamic binding capacity) [1]: 8.27 mg/mL

B11: anti IgG-CH1 VHH #46 (VHH)
VHH: B9 VHH with Q87K
DBC (dynamic binding capacity) [1]: 11.2 mg/mL

B12: anti IgG-CH1 VHH #89 (VHH)
VHH: B2 VHH with S11L, E65K, Y73D, L78T, A88P, I93V, A98S
DBC (dynamic binding capacity) [1]: 5.61 mg/mL

B13: anti IgG-CH1 VHH #37 (VHH)
VHH: B9 VHH with E65K
DBC (dynamic binding capacity) [1]: 9.8 mg/mL

Results, then the binder that gave them:

DBC (dynamic binding capacity) [1]: 8.74 mg/mL | DBC (dynamic binding capacity) (mg human IgG/ml resin) [2]: 28
B3: anti IgG-CH1 VHH #01 (VHH)
VHH: B9 VHH with K43N

DBC (dynamic binding capacity) [1]: 4.98 mg/mL
B5: anti IgG-CH1 VHH #86 (VHH)
VHH: B2 VHH with E6D, E65K, Y73D, L78T, A88P, I93V, Y95F

DBC (dynamic binding capacity) [1]: 9.4 mg/mL
B6: anti IgG-CH1 VHH #19 (VHH)
VHH: B9 VHH with K43N, E65K

DBC (dynamic binding capacity) [1]: 11.9 mg/mL
B7: anti IgG-CH1 VHH #85 (VHH)
VHH: B9 VHH with T40A, K43N, N85S

DBC (dynamic binding capacity) [1]: 11.7 mg/mL
B14: anti IgG-CH1 VHH #73 (VHH)
VHH: B9 VHH with K43N, E65K, K76R, Q87K

DBC (dynamic binding capacity) [1]: 10.2 mg/mL
B15: anti IgG-CH1 VHH #64 (VHH)
VHH: B9 VHH with E65K, Q87K

DBC (dynamic binding capacity) [1]: 12.5 mg/mL
B16: anti IgG-CH1 VHH #28 (VHH)
VHH: B9 VHH with K43N, Q87K

DBC (dynamic binding capacity) [1]: 11.3 mg/mL
B17: anti IgG-CH1 VHH #55 (VHH)
VHH: B9 VHH with K43N, E65K, Q87K
